Here are results for two molecules from publication PMC5515580.

This experiment deals with MAST3-HA (human) (UniProt O60307).
Sequence of MAST3-HA (human) (O60307 313-1021): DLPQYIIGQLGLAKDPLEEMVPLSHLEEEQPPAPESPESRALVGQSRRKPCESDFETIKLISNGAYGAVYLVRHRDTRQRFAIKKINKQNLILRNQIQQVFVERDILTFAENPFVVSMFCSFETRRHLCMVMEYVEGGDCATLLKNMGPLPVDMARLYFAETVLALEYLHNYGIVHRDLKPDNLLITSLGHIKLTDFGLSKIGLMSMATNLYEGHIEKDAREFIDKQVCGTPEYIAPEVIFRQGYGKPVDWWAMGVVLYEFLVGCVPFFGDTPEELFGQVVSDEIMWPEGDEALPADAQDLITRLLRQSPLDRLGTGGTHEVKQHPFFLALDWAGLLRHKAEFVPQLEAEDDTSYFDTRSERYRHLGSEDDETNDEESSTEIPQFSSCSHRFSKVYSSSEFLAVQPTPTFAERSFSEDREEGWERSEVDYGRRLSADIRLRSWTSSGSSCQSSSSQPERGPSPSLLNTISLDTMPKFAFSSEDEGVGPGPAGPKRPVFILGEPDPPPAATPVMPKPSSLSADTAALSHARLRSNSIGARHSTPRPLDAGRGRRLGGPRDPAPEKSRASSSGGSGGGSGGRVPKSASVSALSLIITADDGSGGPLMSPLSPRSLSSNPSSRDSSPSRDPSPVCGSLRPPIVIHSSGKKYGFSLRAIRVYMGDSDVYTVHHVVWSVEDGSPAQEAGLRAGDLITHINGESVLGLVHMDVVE

B1: P-S88-ARPP-16 (natural protein)
chain: MEDKVTSPEKAEEAKLKARYPHLGQKPGGSDFLRKRLQKGQKYFDSGDYNMAKAKMKNKQLPTAAPDKTEVTGDHIPTPQDLPQRKPSLVASKLAG
modifications: phosphoserine at 88 (by PKA, to a maximal stoichiometry)
As for B1, the Km of phosphorylation of Ser46 by immunoprecipitated MAST3 (32P incorporation, 10-500 nM substrate, 2 min; Figure 1b) worked out at 0.158 µM.

B2: 6xHis-S88D-ARPP-16 (natural protein)
chain: MEDKVTSPEKAEEAKLKARYPHLGQKPGGSDFLRKRLQKGQKYFDSGDYNMAKAKMKNKQLPTAAPDKTEVTGDHIPTPQDLPQRKPDLVASKLAG
As for B2, the Km of phosphorylation of Ser46 by immunoprecipitated MAST3 (32P incorporation, 10-500 nM substrate, 2 min; Figure 1—figure supplement 1) is 0.138 µM.
